Data taken from patent publication US20260297165 (published 2026).

B1: sCD59 (His)10 wild-type, commercial (protein)
chain: LQCYNCPNPTADCKTAVNCSSDFDACLITKAGLQVYNKCWKFEHCNFNDVTTRLRENELTYYCCKKDLCNFNEQLEN
B2: Vector KRE sCD59-6xHis wild-type (protein)
chain: MGIQGGSVLFGLLLVLAVFCHSGHSLQCYNCPNPTADCKTAVNCSSDFDACLITKAGLQVYNKCWKFEHCNFNDVTTRLRENELTYYCCKKDLCNFNEQLENHHHHHH
B3: Vector KRM vsCD59 K38R-6xHis (protein)
chain: MGIQGGSVLFGLLLVLAVFCHSGHSLQCYNCPNPTADCKTAVNCSSDFDACLITKAGLQVYNRCWKFEHCNFNDVTTRLRENELTYYCCKKDLCNFNEQLENHHHHHH
B4: Vector KRG vsCD59 N18Q-6xHis (protein)
chain: MGIQGGSVLFGLLLVLAVFCHSGHSLQCYNCPNPTADCKTAVQCSSDFDACLITKAGLQVYNKCWKFEHCNFNDVTTRLRENELTYYCCKKDLCNFNEQLENHHHHHH
B5: Vector MTA sCD59 S20G-6xHis (protein)
chain: MGIQGGSVLFGLLLVLAVFCHSGHSLQCYNCPNPTADCKTAVNCGSDFDACLITKAGLQVYNKCWKFEHCNFNDVTTRLRENELTYYCCKKDLCNFNEQLENHHHHHH
B6: Vector MTE sCD59 S20G,T51G-6xHis (protein)
chain: MGIQGGSVLFGLLLVLAVFCHSGHSLQCYNCPNPTADCKTAVNCGSDFDACLITKAGLQVYNKCWKFEHCNFNDVGTRLRENELTYYCCKKDLCNFNEQLENHHHHHH
B7: Vector MTC sCD59 T51G-6xHis (protein)
chain: MGIQGGSVLFGLLLVLAVFCHSGHSLQCYNCPNPTADCKTAVNCSSDFDACLITKAGLQVYNKCWKFEHCNFNDVGTRLRENELTYYCCKKDLCNFNEQLENHHHHHH
B8: sCD59 wild-type, in-house purified (protein)
chain: MGIQGGSVLFGLLLVLAVFCHSGHSLQCYNCPNPTADCKTAVNCSSDFDACLITKAGLQVYNKCWKFEHCNFNDVTTRLRENELTYYCCKKDLCNFNEQLEN

What follows are binders tested against C9 (human, UniProt P02748) (assay: other (MSD ECL)).
C9, sequence (P02748 22-559): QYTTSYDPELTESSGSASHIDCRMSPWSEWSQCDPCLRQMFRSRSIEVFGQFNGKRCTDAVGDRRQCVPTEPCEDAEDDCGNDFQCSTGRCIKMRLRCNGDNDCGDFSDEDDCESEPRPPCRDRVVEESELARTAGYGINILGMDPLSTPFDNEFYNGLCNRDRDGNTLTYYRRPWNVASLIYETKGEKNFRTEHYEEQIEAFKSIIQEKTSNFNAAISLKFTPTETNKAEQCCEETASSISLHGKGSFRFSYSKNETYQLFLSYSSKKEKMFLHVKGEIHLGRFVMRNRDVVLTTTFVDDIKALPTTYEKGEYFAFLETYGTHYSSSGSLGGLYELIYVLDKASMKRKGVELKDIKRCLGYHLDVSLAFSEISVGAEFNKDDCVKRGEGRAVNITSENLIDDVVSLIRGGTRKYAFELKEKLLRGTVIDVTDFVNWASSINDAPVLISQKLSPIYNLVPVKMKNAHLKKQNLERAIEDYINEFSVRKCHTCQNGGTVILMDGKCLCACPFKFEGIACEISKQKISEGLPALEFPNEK
Binder B1 has a Kd of 33.1 nM.
For B2, the Kd was 34.3 nM.
With B3 the Kd was 39 nM.
Binder B4 has a Kd of 16 nM.
For B5, the Kd was 46.1 nM.
With B6 the Kd was 28.9 nM.
Binder B7 has a Kd of 23.7 nM.
In the case of B8, the Kd is reported as 38.6 nM.
